Test results reported in publication PMC4051428 (Organic Letters, 2014).

T1: ChxH (Streptomyces sp. YIM 56141, UniProt I7D037)
T1 sequence (I7D037 1-262): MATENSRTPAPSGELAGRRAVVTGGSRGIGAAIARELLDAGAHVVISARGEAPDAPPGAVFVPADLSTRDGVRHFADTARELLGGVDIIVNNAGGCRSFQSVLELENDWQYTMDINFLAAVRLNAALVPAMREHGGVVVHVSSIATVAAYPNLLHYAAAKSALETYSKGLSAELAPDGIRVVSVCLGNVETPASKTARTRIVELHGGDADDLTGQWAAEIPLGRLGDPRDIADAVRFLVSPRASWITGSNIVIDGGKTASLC

B1: ChxH (Streptomyces sp. YIM 56141) (protein)
chain: T1 sequence (I7D037 1-262)

Tests used:
ChxH = target: T1, ChxH; test: steady-state kinetics, initial velocity, Michaelis-Menten; conditions: read-out: apparent KM; saturating NADP+; reverse reaction 1 to 10
purified protein [1] = substrate: NC(=O)c1ccc[n+]([C@@H]2O[C@H](COP(=O)(O)OP(=O)(O)OC[C@H]3O[C@@H](n4cnc5c(N)ncnc54)[C@H](O)[C@@H]3O)[C@@H](O)[C@H]2O)c1; test: purified protein; conditions: saturating 1; reverse reaction 1 to 10; varied: cofactor
purified protein [2] = substrate: NC(=O)c1ccc[n+]([C@@H]2O[C@H](COP(=O)(O)OP(=O)(O)OC[C@H]3O[C@@H](n4cnc5c(N)ncnc54)[C@H](OP(=O)(O)O)[C@@H]3O)[C@@H](O)[C@H]2O)c1; test: purified protein; conditions: saturating 1; reverse reaction 1 to 10; varied: cofactor

| Molecule | Km (ChxH) [µM] | Km (purified protein [1]) [µM] | kcat (purified protein [1]) [min^–1] | Km (purified protein [2]) [µM] | kcat (purified protein [2]) [min^–1] |
| --- | --- | --- | --- | --- | --- |
| C[C@@H]1C[C@@H]([C@H](O)CC2CC(=O)NC(=O)C2)C(=O)[C@@H](C)C1 [compound 1, Cycloheximide] | 99 ± 7 | – | – | – | – |
| B1 | – | 233 ± 37 | 13 ± 3 | 76 ± 5 | 387 ± 23 |
